Measurements taken from PMC2568806, “Two Estrogen Response Element Sequences Near the PCNA Gene Are Not Responsible for Its Estrogen-Enhanced Expression in MCF7 Cells”.

What was measured:
[1] = biological target: T1, recombinant estrogen receptor alpha (rERα) (UniProt P03372 1-595); assay: EMSA, supershift; HESC nuclear extract; 25 mM Tris-HCl pH 8.0, 50 mM KCl, 6.25 mM MgCl2, 10% glycerol, 0.5 mM DTT; 5 µg HESC nuclear extract + 170 nM rERα; 5% acrylamide gel in TBE; temperature not stated; conditions: protein: commercial; chain copies: 2; label: 32P 5' end; blunt
[2] = biological target: T1, recombinant estrogen receptor alpha …; assay: EMSA, supershift; HESC nuclear extract; weaker than consensus ERE, stronger than PCNA-ERE2; 25 mM Tris-HCl pH 8.0, 50 mM KCl, 6.25 mM MgCl2, 10% glycerol, 0.5 mM DTT; 5 µg HESC nuclear extract + 170 nM rERα; 5% acrylamide gel in TBE; temperature not stated; conditions: protein: commercial; chain copies: 2; blunt

T1 sequence (P03372 whole entry): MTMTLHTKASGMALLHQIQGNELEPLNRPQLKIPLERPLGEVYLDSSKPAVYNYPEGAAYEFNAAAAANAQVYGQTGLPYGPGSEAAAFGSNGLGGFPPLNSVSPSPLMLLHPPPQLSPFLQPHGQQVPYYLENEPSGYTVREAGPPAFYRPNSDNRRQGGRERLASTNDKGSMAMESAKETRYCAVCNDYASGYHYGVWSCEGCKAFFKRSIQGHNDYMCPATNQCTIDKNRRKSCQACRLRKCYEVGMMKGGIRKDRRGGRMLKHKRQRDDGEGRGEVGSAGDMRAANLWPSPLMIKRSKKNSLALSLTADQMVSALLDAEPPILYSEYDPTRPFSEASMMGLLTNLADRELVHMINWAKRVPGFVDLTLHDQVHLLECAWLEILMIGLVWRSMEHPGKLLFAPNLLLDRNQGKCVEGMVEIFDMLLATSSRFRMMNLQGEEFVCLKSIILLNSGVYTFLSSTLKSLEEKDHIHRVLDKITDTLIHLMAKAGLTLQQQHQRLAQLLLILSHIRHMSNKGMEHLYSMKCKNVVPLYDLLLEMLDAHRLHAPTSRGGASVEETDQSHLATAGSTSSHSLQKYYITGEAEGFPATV

B1: consensus ERE (dsDNA)
DNA 1: GGATCTAGGTCACTGTGACCCCGGATC
DNA 2: GATCCGGGGTCACAGTGACCTAGATCC
B1: binds [1].

B2: PCNA-ERE1 (dsDNA)
DNA 1: GGGAGTTTGAGGCCAGCCTGACCAACATTG
DNA 2: CAATGTTGGTCAGGCTGGCCTCAAACTCCC
B2: binds [2].
